Data: patent publication US20260070976A1 (Alector, published 2026)

Assays:
recombinant human PILRA = recombinant human PILRA (human, UniProt Q9UKJ1 20-197); assay: SPR, Biacore T200, antibody captured by anti-Fab
Protocol: (§1) A subset of these antibodies was further evaluated using the Biacore T200 (Cytiva). Anti-PILRA antibodies were diluted to 10 μg/mL and captured using an anti-Fab (Cytiva, #28958325) surface on a CM4 chip, that was prepared by amine coupling according to the manufacturer's protocol. Human PILRA and cynomolgus PILRB were diluted in running buffer to 130 nM, and diluted 4-fold serially, twice, to 8 nM. Human PILRB was similarly diluted from 260 nM to 16 nM. These analytes were injected and allowed 2 minutes of association, followed by dissociation for 5 minutes.
(§2) Data were analyzed using Biacore evaluation software to generate kinetic constants. The equilibrium dissociation constants (KD) were calculated from the fitted association and dissociation rate constants (k-on and k-off) for each of the anti-PILRA antibodies. These Kn values are indicated with asterisks in Table 8 below.

recombinant human PILRB = recombinant human PILRB (human, UniProt Q9UKJ0 20-191); assay: SPR, Biacore T200, antibody captured by anti-Fab
recombinant human PILRB, sequence (Q9UKJ0 20-191 limits assumed): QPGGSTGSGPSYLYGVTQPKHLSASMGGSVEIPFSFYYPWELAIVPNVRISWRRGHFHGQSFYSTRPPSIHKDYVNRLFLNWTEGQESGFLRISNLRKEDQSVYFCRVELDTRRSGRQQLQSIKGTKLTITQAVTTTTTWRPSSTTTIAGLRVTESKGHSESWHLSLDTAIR
Protocol: as §1, §2

[1] = biological target: T1, cell surface PILRA on human monocytes (human, UniProt Q9UKJ1 20-303); assay: cell-based or functional assay
T1 sequence (Q9UKJ1 20-303): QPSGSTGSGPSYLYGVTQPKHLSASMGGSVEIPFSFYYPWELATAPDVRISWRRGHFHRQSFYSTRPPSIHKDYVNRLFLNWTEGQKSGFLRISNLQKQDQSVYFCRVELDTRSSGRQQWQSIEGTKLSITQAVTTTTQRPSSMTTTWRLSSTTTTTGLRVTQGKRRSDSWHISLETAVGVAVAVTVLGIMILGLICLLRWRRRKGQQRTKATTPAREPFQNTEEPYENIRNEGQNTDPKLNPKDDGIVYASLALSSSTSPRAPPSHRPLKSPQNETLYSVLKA

[2] = biological target: cynomolgus PILRA on HEK293F cells (cynomolgus monkey, UniProt A0A7N9CRU1 20-292); assay: cA Kd of Table 9; method not stated (Example 8: HEK293F overexpressing cells, FACS)
cynomolgus PILRA on HEK293F cells, sequence (A0A7N9CRU1 entry or part of it): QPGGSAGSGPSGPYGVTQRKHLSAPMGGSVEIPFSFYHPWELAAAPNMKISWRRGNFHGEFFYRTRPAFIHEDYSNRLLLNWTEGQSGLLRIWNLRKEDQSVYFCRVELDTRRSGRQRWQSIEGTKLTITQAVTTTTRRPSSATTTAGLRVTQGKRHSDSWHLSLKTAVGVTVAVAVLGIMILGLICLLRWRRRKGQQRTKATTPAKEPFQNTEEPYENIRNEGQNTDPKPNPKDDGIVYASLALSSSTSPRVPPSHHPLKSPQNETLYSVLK

[3] = biological target: T1, cell surface PILRA on human monocytes; assay: flow cytometry; Alexa Fluor 647-conjugated antibody on human CD14+ monocytes, Fc receptors blocked, 30 min on ice
Protocol: Anti-human PILRA antibodies X0 (PA-29) and its affinity matured variants were tested for their abilities to bind cell surface PILRA on human and cynomolgus monocytes. CD14+ monocytes were isolated from healthy human donors using a RosetteSep Human Monocyte Enrichment Cocktail kit (StemCell). Cynomolgus white blood cells were collected from cynomolgus whole blood. In both human and cynomolgus samples, the Fc receptor on the tested monocytes was blocked and the monocytes were treated with Alexa Fluor 647-conjugated PILRA antibodies for 30 minutes on ice. A dose response curve of antibodies X0 (PA-29), X1, X2, X7, X11, X12, X13, X14, X16, X18, and X20 was tested for binding to cell surface PILRA in human and cynomolgus monocytes, and antibodies bound to PILRA in a dose response manner. In another sample of human donor monocytes, a dose response curve of antibodies X0 (PA-29), X1, X2, X11, X13, X18, X29 (PA-43), and X34 (A6) was tested for binding to cell surface PILRA in human and cynomolgus monocytes, and antibodies bound to PILRA in a dose response manner.

recombinant human PILRA, sequence (Q9UKJ1 20-197 limits assumed): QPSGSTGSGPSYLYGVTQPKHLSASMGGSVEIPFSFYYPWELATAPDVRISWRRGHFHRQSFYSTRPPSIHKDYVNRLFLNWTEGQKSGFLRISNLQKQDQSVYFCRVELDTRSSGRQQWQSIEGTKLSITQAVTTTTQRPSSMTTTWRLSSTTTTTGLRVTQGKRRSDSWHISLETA

Kd (recombinant human PILRA): 0.2 nM
Kd (recombinant human PILRB): 9.1 nM
Hu Mono DR EC50 [1]: ~0.0004 µg/mL
Kd [2]: 0.4 nM
EC50 (read off the curve) [3]: ~0.2 µg/mL
B1: X13 (antibody, human IgG4, V domains shown)
VH: QVQLVQSGAEVKKPGSSVKVSCKASGYNFLHYDVNWVRQAPGQGLEWMGGIIPIFGTANYAQKFQGRVTITADESTSTAYMELSSLRSEDTAVYYCATAVGAGWFDPWGQGTLVTVSS
VL: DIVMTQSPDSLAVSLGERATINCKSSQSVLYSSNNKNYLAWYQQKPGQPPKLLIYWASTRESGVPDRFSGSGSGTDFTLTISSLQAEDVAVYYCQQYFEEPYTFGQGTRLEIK
notes: conditioned media in the HEK293F assays
